Assay results taken from the Human Domainome abundance scans (Beltran et al. 2025).
± gives the uncertainty stated by the source.

B1: Far upstream element-binding protein 1, residues 184 to 257; numbered along this chain, Q96AE4 (parent)
chain: GNAVQEIMIPASKAGLVIGKGGETIKQLQERAGVKMVMIQDGPQNTGADKPLRITGDPYKVQQAKEMVLELIRD

Variants of: B1
Test: abundance fitness (aPCA) (normalised: wild type 0, dead -1); higher = more abundant; growth selection in yeast, the domain comes from the species named
Conditions: Homo sapiens

Point of comparison: GNAVQEIMIPASKAGLVIGKGGETIKQLQERAGVKMVMIQDGPQNTGADKPLRITGDPYKVNQAKEMVLELIRD [Q62N], abundance fitness -0.097 ± 0.044. Against it:
- GNAVQEIMIPASKAGLVIGKGGETIKQLQERAGVKMVMIQDGPQNTGADKPLRITGDPYKVYQAKEMVLELIRD [Q62Y] — within error, -0.04 ± 0.051
- GNAVQEIMIPASKAGLVIGKGGETIKQLQERAGVKMVMIQDGPQNTGADKPLRITGDPYKVCQAKEMVLELIRD [Q62C] — within error, -0.037 ± 0.041
- GNAVQEIMIPASKAGLVIGKGGETIKQLQERAGVKMVMIQDGPQNTGADKPLRITGDPYKVAQAKEMVLELIRD [Q62A] — higher, 0.007 ± 0.03
- GNAVQEIMIPASKAGLVIGKGGETIKQLQERAGVKMVMIQDGPQNTGADKPLRITGDPYKVWQAKEMVLELIRD [Q62W] — within error, -0.114 ± 0.035
- GNAVQEIMIPASKAGLVIGKGGETIKQLQERAGVKMVMIQDGPQNTGADKPLRITGDPYKVGQAKEMVLELIRD [Q62G] — within error, -0.03 ± 0.027
- GNAVQEIMIPASKAGLVIGKGGETIKQLQERAGVKMVMIQDGPQNTGADKPLRITGDPYKVFQAKEMVLELIRD [Q62F] — within error, -0.105 ± 0.048
- GNAVQEIMIPASKAGLVIGKGGETIKQLQERAGVKMVMIQDGPQNTGADKPLRITGDPYKVRQAKEMVLELIRD [Q62R] — within error, -0.059 ± 0.026
- GNAVQEIMIPASKAGLVIGKGGETIKQLQERAGVKMVMIQDGPQNTGADKPLRITGDPYKVVQAKEMVLELIRD [Q62V] — within error, -0.049 ± 0.03
- GNAVQEIMIPASKAGLVIGKGGETIKQLQERAGVKMVMIQDGPQNTGADKPLRITGDPYKVHQAKEMVLELIRD [Q62H] — within error, -0.069 ± 0.047
- GNAVQEIMIPASKAGLVIGKGGETIKQLQERAGVKMVMIQDGPQNTGADKPLRITGDPYKVEQAKEMVLELIRD [Q62E] — higher, 0.02 ± 0.034
- GNAVQEIMIPASKAGLVIGKGGETIKQLQERAGVKMVMIQDGPQNTGADKPLRITGDPYKVTQAKEMVLELIRD [Q62T] — higher, -0.011 ± 0.035
- GNAVQEIMIPASKAGLVIGKGGETIKQLQERAGVKMVMIQDGPQNTGADKPLRITGDPYKVKQAKEMVLELIRD [Q62K] — within error, -0.022 ± 0.035
- GNAVQEIMIPASKAGLVIGKGGETIKQLQERAGVKMVMIQDGPQNTGADKPLRITGDPYKVMQAKEMVLELIRD [Q62M] — within error, -0.075 ± 0.041
- GNAVQEIMIPASKAGLVIGKGGETIKQLQERAGVKMVMIQDGPQNTGADKPLRITGDPYKVQQGKEMVLELIRD [A64G] — within error, -0.051 ± 0.027
- GNAVQEIMIPASKAGLVIGKGGETIKQLQERAGVKMVMIQDGPQNTGADKPLRITGDPYKVQQFKEMVLELIRD [A64F] — lower, -0.754 ± 0.064
- GNAVQEIMIPASKAGLVIGKGGETIKQLQERAGVKMVMIQDGPQNTGADKPLRITGDPYKVQQKKEMVLELIRD [A64K] — lower, -0.758 ± 0.053
- GNAVQEIMIPASKAGLVIGKGGETIKQLQERAGVKMVMIQDGPQNTGADKPLRITGDPYKVQQDKEMVLELIRD [A64D] — lower, -0.725 ± 0.059
- GNAVQEIMIPASKAGLVIGKGGETIKQLQERAGVKMVMIQDGPQNTGADKPLRITGDPYKVQQHKEMVLELIRD [A64H] — lower, -0.967 ± 0.086
- GNAVQEIMIPASKAGLVIGKGGETIKQLQERAGVKMVMIQDGPQNTGADKPLRITGDPYKVQQIKEMVLELIRD [A64I] — lower, -0.561 ± 0.054
- GNAVQEIMIPASKAGLVIGKGGETIKQLQERAGVKMVMIQDGPQNTGADKPLRITGDPYKVQQCKEMVLELIRD [A64C] — within error, -0.118 ± 0.042
- GNAVQEIMIPASKAGLVIGKGGETIKQLQERAGVKMVMIQDGPQNTGADKPLRITGDPYKVQQLKEMVLELIRD [A64L] — lower, -0.839 ± 0.043
- GNAVQEIMIPASKAGLVIGKGGETIKQLQERAGVKMVMIQDGPQNTGADKPLRITGDPYKVQQEKEMVLELIRD [A64E] — lower, -0.694 ± 0.041
- GNAVQEIMIPASKAGLVIGKGGETIKQLQERAGVKMVMIQDGPQNTGADKPLRITGDPYKVQIAKEMVLELIRD [Q63I] — within error, -0.025 ± 0.05
- GNAVQEIMIPASKAGLVIGKGGETIKQLQERAGVKMVMIQDGPQNTGADKPLRITGDPYKVQPAKEMVLELIRD [Q63P] — lower, -0.408 ± 0.036
- GNAVQEIMIPASKAGLVIGKGGETIKQLQERAGVKMVMIQDGPQNTGADKPLRITGDPYKVQAAKEMVLELIRD [Q63A] — higher, -0.022 ± 0.03
- GNAVQEIMIPASKAGLVIGKGGETIKQLQERAGVKMVMIQDGPQNTGADKPLRITGDPYKVQTAKEMVLELIRD [Q63T] — within error, -0.039 ± 0.033
- GNAVQEIMIPASKAGLVIGKGGETIKQLQERAGVKMVMIQDGPQNTGADKPLRITGDPYKVQYAKEMVLELIRD [Q63Y] — within error, -0.027 ± 0.05
- GNAVQEIMIPASKAGLVIGKGGETIKQLQERAGVKMVMIQDGPQNTGADKPLRITGDPYKVQGAKEMVLELIRD [Q63G] — within error, -0.058 ± 0.027
- GNAVQEIMIPASKAGLVIGKGGETIKQLQERAGVKMVMIQDGPQNTGADKPLRITGDPYKVQCAKEMVLELIRD [Q63C] — higher, 0.013 ± 0.045
- GNAVQEIMIPASKAGLVIGKGGETIKQLQERAGVKMVMIQDGPQNTGADKPLRITGDPYKVQNAKEMVLELIRD [Q63N] — within error, -0.107 ± 0.049
- GNAVQEIMIPASKAGLVIGKGGETIKQLQERAGVKMVMIQDGPQNTGADKPLRITGDPYKVQHAKEMVLELIRD [Q63H] — within error, -0.069 ± 0.049
- GNAVQEIMIPASKAGLVIGKGGETIKQLQERAGVKMVMIQDGPQNTGADKPLRITGDPYKVQFAKEMVLELIRD [Q63F] — within error, -0.116 ± 0.047
- GNAVQEIMIPASKAGLVIGKGGETIKQLQERAGVKMVMIQDGPQNTGADKPLRITGDPYKVQEAKEMVLELIRD [Q63E] — higher, 0.006 ± 0.035
- GNAVQEIMIPASKAGLVIGKGGETIKQLQERAGVKMVMIQDGPQNTGADKPLRITGDPYKVQMAKEMVLELIRD [Q63M] — within error, -0.026 ± 0.036
- GNAVQEIMIPASKAGLVIGKGGETIKQLQERAGVKMVMIQDGPQNTGADKPLRITGDPYKVQDAKEMVLELIRD [Q63D] — within error, -0.116 ± 0.04
- GNAVQEIMIPASKAGLVIGKGGETIKQLQERAGVKMVMIQDGPQNTGADKPLRITGDPYKVQKAKEMVLELIRD [Q63K] — higher, 0 ± 0.036
